The results in this text go back to patent US20210380703A1 (RIGEL PHARMACEUTICALS, published 2021).

Residue numbers refer to the chain shown, from its start.

First the molecules themselves.
B1: 371_G02 (antibody, V domains shown)
VH: EVQLLESGGGLVQPGGSLRLSCAASGFTFDSYGMNWVRQAPGKGLEWVASINYNGGYTSYADSVKGRFTISRDNSKNTLYLQMNSLRAEDTAVYYCARGANWHDTHLDYWGQGTLVTVSS
VL: DIQMTQSPSSLSASVGDRVTITCRASQSILSYLNWYQQKPGKAPKLLIYAATSRASGVPSRFSGSGSGTDFTLTISSLQPEDFATYYCQQSYDLPLTFGGGTKVEIK
notes: Group III
B2: 371_G09 (antibody, V domains shown)
VH: B1 VH with D30S, G33S, S50N, S59G, H106A
VL: B1 VL with L47V, Y92D, D93S, L94T
notes: Group III
B3: 373_C03 (antibody, V domains shown)
VH: B1 VH with D30S, G33S, A49S, S50G, T58K, H106A
VL: B1 VL with L30V, S31T, L47V, L94S
notes: Group III
B4: 372_E01 (antibody, V domains shown)
VH: B1 VH with S31D, G33S, A49S, S50G, T58K, S59G, H106A
VL: B1 VL with L30V, L47V, A55H, L94S
notes: Group III
B5: 371_H10 (antibody, V domains shown)
VH: B1 VH with D30S, G33S, S50G, G55S, T58K
VL: B1 VL with L30S, S31T, A55H, D93E, L94N
notes: Group III
B6: 373_C10 (antibody, V domains shown)
VH: B1 VH with D30S, G33S, S50G, H106A
VL: B1 VL with S31T, L33V, L94N
notes: Group III
B7: 373_A03 (antibody, V domains shown)
VH: B1 VH with D30S, S31D, G33S, S50N, S59G, H106A
VL: B1 VL with L47V, L94N
notes: Group III
B8: 373_B07 (antibody, V domains shown)
VH: B1 VH with G33S, A49S, S50G, H106A
VL: B1 VL with S31T, L33V, L47V, D93E
notes: Group III
B9: 371_H04 (antibody, V domains shown)
VH: B1 VH with D30S, A49S, S50N, S59G, H106A
VL: B1 VL with S31T, D93N, L94S
notes: Group III
B10: 371_H08 (antibody, V domains shown)
VH: B1 VH with D30S, T58K, S59G
VL: B1 VL with L30I, L33V, L47V, A51V, L94T
notes: Group III
B11: 373_F12 (antibody, V domains shown)
VH: B1 VH with D30S, G33S, A49S, S50N, S59G, H106A
VL: B1 VL with L30S, S31T, L47V, D93E, L94T
notes: Group III
B12: 373_C07 (antibody, V domains shown)
VH: B1 VH with G33S, S50G, G55S
VL: B1 VL with S31T, L47V, D93E, L94T
notes: Group III
B13: 373_E10 (antibody, V domains shown)
VH: B1 VH with D30S, S31D, G33S, A49S, S50G, H106A
VL: B1 VL with S31T, L33V, L47V, A55H, D93E, L94T
notes: Group III
B14: 373_B05 (antibody, V domains shown)
VH: B1 VH with D30S, S31D, G33S, A49S, S50N, T58K, H106A
VL: B1 VL with L30V, S31T, L47V, D93S, L94N
notes: Group III
B15: 372_G12 (antibody, V domains shown)
VH: B1 VH with G33S, S50G, S59G
VL: B1 VL with S31T, L47V, A55H, L94S
notes: Group III
B16: 373_A01 (antibody, V domains shown)
VH: B1 VH with D30S, A49S, S50N, S59G
VL: B1 VL with L30V, S31T, L47V, A51T, D93N
notes: Group III
B17: 373_D03 (antibody, V domains shown)
VH: B1 VH with D30S, G33S, A49S, S50G, H106A
VL: B1 VL with L30V, R54L, L94T
notes: Group III
B18: 371_G04 (antibody, V domains shown)
VH: B1 VH with G33S, A49S, S50G, T58K, H106A
VL: B1 VL with R54L, A55H, D93E, L94S
notes: Group III
B19: 373_A12 (antibody, V domains shown)
VH: B1 VH with D30S, G33S, A49S, H106A
VL: B1 VL with S31T, L47V, L94T
notes: Group III
B20: 372_C06 (antibody, V domains shown)
VH: B1 VH with D30S, S31D, G33S, A49S, S50G, H106A
VL: B1 VL with L30V, L33V, D93S, L94S
notes: Group III
B21: 373_F11 (antibody, V domains shown)
VH: B1 VH with N35H, A49S, S50G, G55S
VL: B1 VL with L30V, L33V, D93N
notes: Group III
B22: 373_A11 (antibody, V domains shown)
VH: B1 VH with D30S, S31N, S50N, S59G, H106A
VL: B1 VL with S31T
notes: Group III
B23: 371_G11 (antibody, V domains shown)
VH: B1 VH with D30S, A49S, S50N, G55S, H106A
VL: B1 VL with L33V, R54L, L94S
notes: Group III
B24: 371_H06 (antibody, V domains shown)
VH: B1 VH with A49S, S50G, H106A
VL: B1 VL with L30S, L47V, A51V
notes: Group III
B25: 372_D03 (antibody, V domains shown)
VH: B1 VH with D30S, G33S, S50G, G55S, T58K, H106A
VL: B1 VL with L33V, L47V, A51V, A55H, L94S
notes: Group III
B26: 373_A05 (antibody, V domains shown)
VH: B1 VH with D30S, S31D, G33S, A49S, S50G, G55S, T58K
VL: B1 VL with L33V, L47V, A55H, D93E, L94S
notes: Group III
B27: 371_H05 (antibody, V domains shown)
VH: B1 VH with D30S, A49S, S50G, G55S, T58K, H106A
VL: B1 VL with L30I, R54L, D93S
notes: Group III
B28: 372_B02 (antibody, V domains shown)
VH: B1 VH with D30S, G33S, A49S, S50G, G55S, H106A
VL: B1 VL with L33V, A51V, R54L, D93E, L94T
notes: Group III
B29: 373_A09 (antibody, V domains shown)
VH: B1 VH with G33S, S50G, H106A
VL: B1 VL with S31T, R54L, L94T
notes: Group III
B30: 373_F08 (antibody, V domains shown)
VH: B1 VH with D30S, G33S, A49S, S50G, H106A
VL: B1 VL with S31T, L94T
notes: Group III
B31: 373_D12 (antibody, V domains shown)
VH: B1 VH with G33S, A49S, G55S, T58K, S59G
VL: B1 VL with L33V, D93S
notes: Group III
Further: test concentration or dose not given here.

T2 sequence (P27038 20-135 limits assumed): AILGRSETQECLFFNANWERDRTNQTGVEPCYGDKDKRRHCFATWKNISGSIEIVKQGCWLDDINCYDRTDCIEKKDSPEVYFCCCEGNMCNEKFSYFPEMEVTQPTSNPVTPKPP

The target of the first assay is T1, human ACVR2A (human, UniProt P27037 20-135, limits assumed).
T1 construct: coated antigen of the initial ELISA; also called activin receptor, type II A
T1 sequence (P27037 20-135 limits assumed): as the sequence (P27038 20-135 limits assumed) above, with R20K, I73V counted along it
The experiment in a line: ELISA. In short, it runs like this: (§1)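 mAb binding by ELISA; antigens: hu ACVR2A, mu ACVR2A; pos ctrl biotinylated goat anti-hu kappa LC; neg ctrl hu Fc.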
B1 showed an optical density of 3.12 OD.
B2 returned an optical density of 2.75 OD.
Still for that read-out and setting: under B3 stands 3.69 OD.
Still for that read-out and setting: under B4 stands 3.34 OD.
B5 showed an optical density of 2.19 OD.
Still for that read-out and setting: the same measure for B6: 3.65 OD; for B7: 3.65 OD.
Same read-out and setting: under B8 stands 3.66 OD; under B9, 3.26 OD; under B10, 1.66 OD.
For B11, the optical density worked out at 3.25 OD.
Still for that read-out and setting: under B12 stands 3.57 OD; under B13, 3.72 OD; under B14, 3.59 OD.
Still for that read-out and setting: under B15 stands 2.41 OD; under B16, 3.18 OD.
In the case of B17, the optical density came to 3.75 OD.
For B18, the optical density turned out to be 3.62 OD.
Same read-out and setting: under B19 stands 3.59 OD.
For B20, the optical density amounted to 3.21 OD.
On the same count and under the same terms, under B21 stands 3.35 OD; under B22, 3.76 OD; under B23, 2.84 OD.
Same read-out and setting: the same measure for B24: 3.03 OD; for B25: 3.04 OD; for B26: 3.45 OD.
The molecule B27 returned an optical density of 1.2 OD.
As to B28, the optical density turned out to be 3.17 OD.
Same read-out and setting: the same measure for B29: 3.66 OD; for B30: 3.76 OD; for B31: 3.4 OD.

The next assay has as its target T2, mouse ACVR2A (mouse, UniProt P27038 20-135, limits assumed).
T2 construct: coated antigen of the initial ELISA
Kind of assay: ELISA. In short, it runs like this:
as §1
B1 yielded an optical density of 3.06 OD.
Still for that read-out and setting: the same measure for B2: 3.07 OD; for B3: 3.65 OD.
The same measure, in the same setting: under B4 stands 3.34 OD.
The same measure, in the same setting: the same measure for B5: 2.55 OD; for B6: 3.65 OD.
B7 showed an optical density of 3.63 OD.
The same measure, in the same setting: the same measure for B8: 3.61 OD; for B9: 3.51 OD.
The same measure, in the same setting: under B10 stands 2.04 OD; under B11, 3.22 OD; under B12, 3.58 OD.
Still for that read-out and setting: under B13 stands 3.64 OD; under B14, 3.53 OD; under B15, 2.73 OD.
B16: the optical density is 3.48 OD.
For B17, the optical density came to 3.69 OD.
On the same count and under the same terms, under B18 stands 3.58 OD; under B19, 3.31 OD; under B20, 3.54 OD.
Same read-out and setting: under B21 stands 3.46 OD.
Same read-out and setting: under B22 stands 3.68 OD; under B23, 2.75 OD.
The molecule B24 came in with an optical density of 3.11 OD.
Still for that read-out and setting: under B25 stands 3.29 OD; under B26, 3.42 OD; under B27, 1.25 OD.
Same read-out and setting: under B28 stands 3.51 OD.
Still for that read-out and setting: the same measure for B29: 3.62 OD.
B30 came in with an optical density of 3.7 OD.
For B31, the optical density amounted to 3.21 OD.

A further assay addresses T3, biotinylated goat anti-human kappa light chain.
T3 construct: positive control of the ELISA
Kind of assay: ELISA, positive control. The gist of the method:
as §1
(In general: ELISA stands for enzyme-linked immunosorbent assay.)
The molecule B1 displayed an optical density of 3.67 OD.
Still for that read-out and setting: the same measure for B2: 3.58 OD; for B3: 3.3 OD; for B4: 3.6 OD.
Same read-out and setting: the same measure for B5: 3.55 OD; for B6: 3.23 OD.
Regarding B7, the optical density was 3.08 OD.
For B8, the optical density came out at 3.3 OD.
In the case of B9, the optical density was determined as 3.58 OD.
B10 yielded an optical density of 3.47 OD.
B11 had an optical density of 3.06 OD.
On to B12, for which the optical density is 3.3 OD.
Still for that read-out and setting: the same measure for B13: 3.2 OD; for B14: 3.23 OD.
Take B15: the optical density was 3.5 OD.
On the same count and under the same terms, the same measure for B16: 2.95 OD.
Regarding B17, the optical density was 3.18 OD.
In the case of B18, the optical density turned out to be 3.54 OD.
The molecule B19 displayed an optical density of 3.09 OD.
The same measure, in the same setting: under B20 stands 3.49 OD; under B21, 3.32 OD.
On the same count and under the same terms, under B22 stands 3.09 OD.
The same measure, in the same setting: under B23 stands 3.67 OD.
With B24, the optical density amounted to 3.7 OD.
The same measure, in the same setting: the same measure for B25: 3.6 OD.
In turn, B26 gave an optical density of 3.03 OD.
The molecule B27 had an optical density of 3.27 OD.
Same read-out and setting: the same measure for B28: 3.67 OD.
On the same count and under the same terms, the same measure for B29: 3.11 OD; for B30: 3.21 OD.
The same measure, in the same setting: the same measure for B31: 3.21 OD.
